# In the supplement of paper PMC9112550, “Optimization of the antimicrobial peptide Bac7 by deep mutational scanning” (BMC Biology, 2022):
# Tested on: Escherichia coli TOP10
# Test: shrunken log2 fold change of peptide-encoding DNA abundance (4.5 h post-induction vs induction); higher = less antimicrobial activity (less host growth inhibition)
# Settings: time post-induction: 4.5 h; library: site-saturation at positions 5, 18, 19, 20
# 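Further: peptides expressed intracellularly from a pBAD plasmid library in pooled LB shake-flask culture, induced with 0.3% L-arabinose, DNA abundance read by NGS, three biological replicates, DESeq2 with apeglm shrinkage.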
row,Sequence,shrunken log2 fold change
1,RRIRGRPPRLPRPRPRPHHFPRP,-0.0789
2,RRIRTRPPRLPRPRPRPRNSPRP,-0.193
3,RRIRLRPPRLPRPRPRPIMIPRP,-0.286
4,RRIRQRPPRLPRPRPRPRYGPRP,-0.407
5,RRIRTRPPRLPRPRPRPTMNPRP,-0.371
6,RRIRTRPPRLPRPRPRPNEDPRP,-0.0528
7,RRIRMRPPRLPRPRPRPIFQPRP,-0.115
8,RRIRDRPPRLPRPRPRPFKIPRP,-0.249
9,RRIRGRPPRLPRPRPRPKIPPRP,0.0163
10,RRIRWRPPRLPRPRPRPCKMPRP,-0.184
11,RRIRLRPPRLPRPRPRPHLSPRP,-0.0728
12,RRIRLRPPRLPRPRPRPYVRPRP,0.0394
13,RRIRQRPPRLPRPRPRPISYPRP,0.0146
14,RRIRGRPPRLPRPRPRPQALPRP,0.135
15,RRIRCRPPRLPRPRPRPDKLPRP,0.0152
16,RRIRNRPPRLPRPRPRPHWAPRP,0.13
17,RRIRERPPRLPRPRPRPKDEPRP,-0.379
18,RRIRIRPPRLPRPRPRPNLGPRP,-0.109
19,RRIRMRPPRLPRPRPRPEGAPRP,3.32
20,RRIRYRPPRLPRPRPRPYPWPRP,0.0116
21,RRIRLRPPRLPRPRPRPPMYPRP,-0.093
22,RRIRMRPPRLPRPRPRPMHGPRP,-0.0683
23,RRIRVRPPRLPRPRPRPHPPPRP,0.361
24,RRIRMRPPRLPRPRPRPAGCPRP,0.842
25,RRIRCRPPRLPRPRPRPNDIPRP,-0.762

row,Sequence,shrunken log2 fold change
1,RRIRDRPPRLPRPRPRPSKYPRP,-0.455
2,RRIRNRPPRLPRPRPRPFCAPRP,-0.0161
3,RRIRRRPPRLPRPRPRPAEEPRP,0.618
4,RRIRVRPPRLPRPRPRPVEPPRP,0.218
5,RRIRIRPPRLPRPRPRPWRWPRP,0.182
6,RRIRRRPPRLPRPRPRPSYPPRP,-0.115
7,RRIRGRPPRLPRPRPRPGLQPRP,0.236
8,RRIRERPPRLPRPRPRPGHCPRP,0.0591
9,RRIRIRPPRLPRPRPRPQMWPRP,-0.171
10,RRIRMRPPRLPRPRPRPGNFPRP,0.121
11,RRIRDRPPRLPRPRPRPNNPPRP,-0.357
12,RRIRYRPPRLPRPRPRPTVCPRP,-0.0618
13,RRIRNRPPRLPRPRPRPWMLPRP,-0.0937
14,RRIRYRPPRLPRPRPRPANPPRP,-0.422
15,RRIRCRPPRLPRPRPRPWNHPRP,-0.939
16,RRIRLRPPRLPRPRPRPIDMPRP,-0.184
17,RRIRLRPPRLPRPRPRPMLQPRP,-0.0201
18,RRIRQRPPRLPRPRPRPAREPRP,-0.0167
19,RRIRMRPPRLPRPRPRPLLYPRP,0.0402
20,RRIRIRPPRLPRPRPRPREWPRP,0.0237
21,RRIRMRPPRLPRPRPRPHPRPRP,1.04
22,RRIRTRPPRLPRPRPRPDIAPRP,-0.0105
23,RRIRERPPRLPRPRPRPTAMPRP,0.109
24,RRIRPRPPRLPRPRPRPILFPRP,-0.124
25,RRIRSRPPRLPRPRPRPTRTPRP,0.386

row,Sequence,shrunken log2 fold change
1,RRIRIRPPRLPRPRPRPTIAPRP,-0.327
2,RRIRHRPPRLPRPRPRPWEKPRP,-0.359
3,RRIRIRPPRLPRPRPRPEAPPRP,0.366
4,RRIRWRPPRLPRPRPRPQANPRP,0.395
5,RRIRHRPPRLPRPRPRPRPIPRP,0.117
6,RRIRSRPPRLPRPRPRPLLWPRP,0.236
7,RRIRCRPPRLPRPRPRPCYGPRP,-0.28
8,RRIRERPPRLPRPRPRPIVIPRP,-0.233
9,RRIRKRPPRLPRPRPRPWNCPRP,0.0387
10,RRIRTRPPRLPRPRPRPDYWPRP,-0.149
11,RRIRNRPPRLPRPRPRPAWNPRP,-0.0495
12,RRIRERPPRLPRPRPRPSLIPRP,-2.26
13,RRIRKRPPRLPRPRPRPYTHPRP,-0.376
14,RRIRDRPPRLPRPRPRPNRNPRP,-0.227
15,RRIRWRPPRLPRPRPRPCHKPRP,-0.0267
16,RRIRDRPPRLPRPRPRPRLTPRP,0.41
17,RRIRVRPPRLPRPRPRPWMYPRP,-0.225
18,RRIRLRPPRLPRPRPRPEACPRP,-0.0158
19,RRIRHRPPRLPRPRPRPLCCPRP,-0.0675
20,RRIRRRPPRLPRPRPRPDCDPRP,0.222
21,RRIRRRPPRLPRPRPRPDPWPRP,0.335
22,RRIRERPPRLPRPRPRPHCCPRP,-0.0271
23,RRIRTRPPRLPRPRPRPATKPRP,0.0756
24,RRIRMRPPRLPRPRPRPLWSPRP,-0.0373
25,RRIRRRPPRLPRPRPRPSCHPRP,-0.0344

row,Sequence,shrunken log2 fold change
1,RRIRKRPPRLPRPRPRPETDPRP,0.0366
2,RRIRFRPPRLPRPRPRPQVNPRP,-0.0623
3,RRIRPRPPRLPRPRPRPSWHPRP,0.182
4,RRIRKRPPRLPRPRPRPWKWPRP,-0.0168
5,RRIRVRPPRLPRPRPRPVGVPRP,0.321
6,RRIRFRPPRLPRPRPRPKQAPRP,-0.0316
7,RRIRIRPPRLPRPRPRPTGQPRP,0.0119
8,RRIRCRPPRLPRPRPRPTAQPRP,0.301
9,RRIRWRPPRLPRPRPRPLEGPRP,-0.158
10,RRIRRRPPRLPRPRPRPPWCPRP,0.294
11,RRIRARPPRLPRPRPRPNHHPRP,-0.223
12,RRIRQRPPRLPRPRPRPYVYPRP,0.00646
13,RRIRPRPPRLPRPRPRPMHCPRP,-0.0698
14,RRIRARPPRLPRPRPRPLYTPRP,-0.0964
15,RRIRVRPPRLPRPRPRPRWHPRP,0.217
16,RRIRYRPPRLPRPRPRPPDTPRP,-0.425
17,RRIRIRPPRLPRPRPRPEWMPRP,-0.0985
18,RRIRCRPPRLPRPRPRPCRAPRP,-0.0671
19,RRIRTRPPRLPRPRPRPNNIPRP,-0.695
20,RRIRSRPPRLPRPRPRPYRFPRP,-0.134
21,RRIRQRPPRLPRPRPRPPWLPRP,0.307
22,RRIRARPPRLPRPRPRPNKEPRP,-0.211
23,RRIRCRPPRLPRPRPRPIVLPRP,-0.456
24,RRIRHRPPRLPRPRPRPPGHPRP,0.184
25,RRIRRRPPRLPRPRPRPLETPRP,1.01

row,Sequence,shrunken log2 fold change
1,RRIRRRPPRLPRPRPRPIEDPRP,-0.089
2,RRIRARPPRLPRPRPRPVWIPRP,-0.0967
3,RRIRIRPPRLPRPRPRPPAQPRP,0.0916
4,RRIRSRPPRLPRPRPRPKDCPRP,0.456
5,RRIRSRPPRLPRPRPRPCQMPRP,0.0312
6,RRIRARPPRLPRPRPRPKMVPRP,0.116
7,RRIRLRPPRLPRPRPRPVRWPRP,0.928
8,RRIRTRPPRLPRPRPRPTYSPRP,-1.56
9,RRIRSRPPRLPRPRPRPNLVPRP,-0.0453
10,RRIRQRPPRLPRPRPRPNPVPRP,-0.117
11,RRIRSRPPRLPRPRPRPYSVPRP,-0.582
12,RRIRCRPPRLPRPRPRPDDEPRP,0.33
13,RRIRLRPPRLPRPRPRPYDEPRP,-0.353
14,RRIRTRPPRLPRPRPRPHGKPRP,-0.209
15,RRIRARPPRLPRPRPRPKDQPRP,0.504
16,RRIRSRPPRLPRPRPRPPRHPRP,0.219
17,RRIRPRPPRLPRPRPRPWVKPRP,-0.0754
18,RRIRVRPPRLPRPRPRPKKMPRP,-0.0803
19,RRIRLRPPRLPRPRPRPAQKPRP,0.37
20,RRIRKRPPRLPRPRPRPCYLPRP,-0.427
21,RRIRMRPPRLPRPRPRPIYNPRP,-0.347
22,RRIRSRPPRLPRPRPRPYCVPRP,-0.912
23,RRIRERPPRLPRPRPRPHHGPRP,-0.43
24,RRIRIRPPRLPRPRPRPSKQPRP,-0.18
25,RRIRQRPPRLPRPRPRPQWIPRP,-0.0848

row,Sequence,shrunken log2 fold change
1,RRIRKRPPRLPRPRPRPPTQPRP,0.301
2,RRIRWRPPRLPRPRPRPHDNPRP,-0.114
3,RRIRTRPPRLPRPRPRPKDDPRP,-0.124
4,RRIRARPPRLPRPRPRPYLFPRP,-0.494
5,RRIRARPPRLPRPRPRPNCIPRP,-0.113
6,RRIRDRPPRLPRPRPRPTGKPRP,0.0507
7,RRIRCRPPRLPRPRPRPTMYPRP,-0.541
8,RRIRMRPPRLPRPRPRPYTKPRP,-0.0606
9,RRIRARPPRLPRPRPRPFIGPRP,-0.457
10,RRIRMRPPRLPRPRPRPHNTPRP,-0.168
11,RRIRFRPPRLPRPRPRPGFEPRP,-0.0266
12,RRIRDRPPRLPRPRPRPGKAPRP,0.00543
13,RRIRERPPRLPRPRPRPLVYPRP,-0.309
14,RRIRVRPPRLPRPRPRPFIEPRP,-0.468
15,RRIRSRPPRLPRPRPRPQGGPRP,0.171
16,RRIRVRPPRLPRPRPRPGRRPRP,0.236
17,RRIRSRPPRLPRPRPRPRHKPRP,-0.262
18,RRIRQRPPRLPRPRPRPKWHPRP,0.48
19,RRIRPRPPRLPRPRPRPFTEPRP,-0.649
20,RRIRLRPPRLPRPRPRPSMAPRP,-0.0685
21,RRIRYRPPRLPRPRPRPKMLPRP,0.0981
22,RRIRGRPPRLPRPRPRPVRRPRP,0.977
23,RRIRHRPPRLPRPRPRPRRRPRP,0.0874
24,RRIRQRPPRLPRPRPRPDDGPRP,-0.171
25,RRIRCRPPRLPRPRPRPWPVPRP,0.215
